Measurements reported in patent US12545899B2, “Luciferase enzymes for use with thermostable luciferins in bioluminescent assays” (Promega Corporation, priority 2018, dated 2026).
Residue numbers refer to the chain shown, from its start. Numbers in names are those of the source.

B1: C4598F8: SEQ ID NO: 60; H244W+T344A+I396K+I109V+V262A+V287I+K309N (protein)
chain: MADKNILYGPEPFYPLEDGTAGEQMFDALSRYAAIPGCIALTNAHTKENVLYEEFLKLSCRLAESFKKYGLKQNDTIAVCSENSLQFFLPVIASLYLGIIVAPVNDKYVERELIHSLGIVKPRIVFCSKNTFQKVLNVKSKLKSIETIIILDLNEDLGGYQCLNNFISQNSDSNLDVKKFKPYSFNRDDQVASIMFSSGTTGLPKGVMLTHKNIVARFSIAKDPTFGNAINPTSAILTVIPFHWGFGMMTTLGYFTCGFRVALMHTFEEKLFLQSLQDYKVESTLLIPTLMAFLAKSALVEKYDLSHLNEIASGGAPLSKEIGEMVKKRFKLNFVRQGYGLTEATSAVLITPKGDAKPGSTGKIVPLHAVKVVDPTTGKILGPNEPGELYFKGPMKMKGYYNNEEATKAIIDNDGWLRSGDIAYYDNDGHFYIVDRLKSLIKYKGYQVAPAEIEGILLQHPYIVDAGVTGIPDEAAGELPAAGVVVQTGKYLNEQIVQDYVASQVSTAKWLRGGVKFLDEIPKGSTGKIDRKVLRQMLEKHTNGHHHHHHHH
B2: MK0109: SEQ ID NO: 76; S193A (protein)
chain: B1 chain with V109I, S193A, N228D, A262V, I287V, L305F, S306P, N309K
B3: C4609F7: SEQ ID NO: 64; H244W+T344A+I396K+Y108F+V262A+L305F (protein)
chain: B1 chain with Y108F, V109I, I287V, L305F, N309K
B4: C4608E7: SEQ ID NO: 63; H244W+T344A+I396K+K121N+N228D+V287I (protein)
chain: B1 chain with V109I, K121N, N228D, A262V, N309K
B5: C4581C3: SEQ ID NO: 55; H244W+T344A+I396K+I109M+S193L (protein)
chain: B1 chain with V109M, S193L, A262V, I287V, N309K
B6: C4629G5: SEQ ID NO: 67; H244W+T344A+I396K+I236V (protein)
chain: B1 chain with V109I, I236V, A262V, I287V, N309K
B7: C4584G5: SEQ ID NO: 57; H244W+T344A+I396K+K107Q+L305F (protein)
chain: B1 chain with K107Q, V109I, A262V, I287V, L305F, N309K

Key:
[1] = E. coli lysate screen of epPCR/DNA shuffling variants with CS0280; assay type: biochemical; conditions: Detection Reagent, 1 mM ATP, 500 μM substrate, 3 mins
Method: (§1) These experiments included lysing E. coli cells expressing each luciferase enzyme variant in Detection Reagent containing 1 mM ATP+500 μM substrate. The cell lysate was incubated at room temperature for 3 mins and luminescence was read. The raw luminescence reading was normalized to the on-plate luminescence of ATG-2889, which was used as a control in this screen.

[2] = E. coli lysate screen of epPCR/DNA shuffling variants with CS0333; assay type: biochemical; conditions: Detection Reagent, 1 mM ATP, 500 μM substrate, 3 mins
Method: as §1

[3] = Effect of individual mutations: maximum luminescence with CS0333; assay type: biochemical; conditions: 10 fM to 1 mM CS0333; Detection Reagent (DR) buffer
Method: Experiments were also conducted to evaluate and compare the activities of the various luciferase enzyme variants, including the effects of individual amino acid mutations. To evaluate the effect of individual mutations on luciferase enzyme variants, 0.005 mg/ml luciferase enzyme variant was mixed with 1 mM ATP+10 fM to 1 mM CS0333 in Detection Reagent (DR) buffer.

[4] = Differential scanning fluorimetry (DSF) analysis; assay type: physicochemical; conditions: Table 9A
Procedure, shortened: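 Enzymes mixed with Sypro Orange at 5× final, heated 30–95° C at 1° C per minute with fluorescence read every 60 s. Storage buffer 50 mM HEPES pH 7.5, 100 mM NaCl, 2 mM EDTA, or for luciferase variants 20 mM HEPES pH 7.5, 200 mM NaCl, 1 mM EDTA; per-minute fluorescence change plotted against temperature.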

Molecule	Normalized luminescence (Mutant RLU/ATG2889 RLU) with CS0280 [1]	Normalized luminescence (Mutant RLU/ATG2889 RLU) with CS0333 [2]	Vmax (RLU) with CS0333 [3]	DSF Tm (° C.) [4] [°C]
B1	5.88	4.91	–	–
B2	–	–	1,114 RLU	77
B3	3.90	6.04	–	–
B4	5.26	6.86	–	–
B5	3.88	1.04	–	–
B6	5.06	2.26	–	–
B7	4.39	3.42	–	–
